Laboratory results from the DeepSol protein solubility set.

Assay: soluble on expression in E. coli; label from the status in PepcDB or PDB records

| Sequence | soluble on expression in E. coli |
| --- | --- |
| MSRITQVHRILEQKHLDAIIILSDYNRRYLSGFTGTSGALIISKDKQYLITDFRYIDQATKQAPNYEIINRKSTIIGEIKELLHQENFENVGFEGHHVSYDTYLELNKSRISLISISNTVDKIRDVKDADEIALIQKAANIVDETYEYILTVVKAGMTEKELKAILESKMLELGADGPSFDTIVASGHRGALPHGVASDKIIEKGDMITLDFGAYYNGYCSDITRTFAIGEPDPKLKEIYQIVLESQMKAINEIRPGMTGAEADAISRNYLESKGYGKEFGHSLGHGIGLEIHEGPMLARTIQDKLQVNNCVTVEPGVYIEGLGGIRIEDDILITENGCQVFTKCTKDLIVLT | not soluble |
| MGSDKIHHHHHHHTDKAEFLDFSNLTQYRQDVKTLASDAFEGRAPLSKGETLTLDFLVNAFKEMGLAPGFGDSYLQAVPMAKITAKQDMQLTIGALKFTHGKDFTARSQQIKPHIALNNSEVVFVGYGINAPEFGWNDYAGIDVKGKTVIMLVNDPGFATQDNKRFKGNAMTYYGRWTYKYEEAARQGAAAVFIVHETAPAGYGWGVVENSNTGSKFTLVDDNNNLSQIAVMGWLQHKATQQIFATAGLDFDSLKLSTHKAGFKTVDLNLSAKLNLDNSIEMAKSHNVLALLPGATEFDGKRNPQQDELVVMHAHWDHLGSKTHQDGSQEIFNGAVDNASGTAGVLALARAFKAKASVTPFKRSILFSAFTAEETGLIGAQYFAQNPSVPTKNIAAFLNIDGMNVNDGVSYILQYGQGVSELEDYLEDAAKAQQRTVKADPLPQNGLMFRSDHFALAQEGVPGLLFMSLGDTDPNYIDAKYHKEADDYDANWSLGGVSQDLSLIGSILARLANNSDWPKWLEDSDFKTRRSEDNR | not soluble |
| MTAALPDLSFHPAWHAQLELAYARAGDATRPVTRRHAGPLRVQKHLYAEGPEVCQHILVHPPGGIAGGDSLAFDVRLGERAWAQLTSPGAAKWYRAACPARQTLEIHLEPGATLEWLPQESIVFAGAQAELETRIQLRGDARLFYWDMVALGRPASGERFASGHFVAALDIRRDDRLLWHERQRIDGGDRLLDSPIGLAGHPVLATLVASGEIDTDLLQRCRALPCAGRGNLSQLPGGLLVARCLADEALHARAWLIELWRLLRPALLGREAVPPRIWSTLEHHHHHH | not soluble |
| GMTSREDEIRDFLATHGYADWNRTPLAGDASSRRYQRLRSPTGAKAVLMDWSPEEGGDTQPFVDLAQYLRNLDISAPEIYAEEHARGLLLIEDLGDALFTEVINNDPAQEMPLYRAAVDLLIHLHDAQTPELARLDPETLSEMTRLAFSEYRYAILGDAAEDNRKRFEHRFAQILSAQLEGDMVFVHRDFHAQNLLWLPEREGLARVGVIDFQDAKLGHRAYDLVSLLQDARRDVPAQVEAQMIDHYIQATGVDESHFRSAYAVIAVQRNMRILGIFARLSQRFGKRHYIEFVPRVWAHFERGLAHPALASAAEEILNALPAPAPEVLERLRA | soluble |
| MVPAESNAVQAKLAKTLQRFENKIKAGDYYEAHQTLRTIANRYVRSKSYEHAIELISQGALSFLKAKQGGSGTDLIFYLLEVYDLAEVKVDDISVARLVRLIAELDPSEPNLKDVITGMNNWSIKFSEYKFGDPYLHNTIGSKLLEGDFVYEAERYFMLGTHDSMIKYVDLLWDWLCQVDDIEDSTVAEFFSRLVFNYLFISNISFAHESKDIFLERFIEKFHPKYEKIDKNGYEIVFFEDYSDLNFLQLLLITCQTKDKSYFLNLKNHYLDFSQAYKSELEFLGQEYFNIVAPKQTNFLQDMMSGFLGGSK | soluble |
| MKSFDGHNDLLARLWLSEHPDPVGMFLKGQLPGHLDFARCQQAQFAGGLFAIFVPPFDYVKNNHPYKLRKSAQAGFDTQDIHHIVFTQLDYIKQIASRSDRRIQICLSVEDIQFCLQQDIMAVVIHLEGAEVLDSEFGVLEQLHARGLRSIGPLWNLPNQFGHGLQASFPHSPDTGLGLTDQGKALIQLCSEKRIMIDVSHMNEKAFWDTAKISELPLIATHSNVHQLCPQPRNLTDAQLEAIQASQGCVGVNFDTAFLRPDGQRNAATSLDLILEHIEYLMHKLGEDQVAFGSDFDGGFISDHLKDVTGLIHLQQAFERRGYSQALQEKLCHQNWLSALQRVWHPAC | not soluble |
| GLEYRFSKSKQALELTSLRLKEKSEQLEHSQRVAIVGEIGSSLAHELNQPLAAIRNYSEGGLLRLAKKRPHEDIVPVLEKIQGQVERADAIIQRLRTLIRKRSVDKTPCDIQALIADTIELLHFRMQKQNVAIVTSVEGEIRPLLADSVGVQQVLVNVINNAIDACALFQEKYHSSGYQGKIALHCDYQANQLSIRILDNGTGLQQENPTQAFVSSKAEGLGLGLAICRDVMEMHGGEFLIASTTPHGCLVELVFPYQN | not soluble |
| MMFNNNNWKLSVTDINLYENTVSLDGQPYPLSLAIKTLIPGYLSGLPSTSREAMELLEALAEAGVTIGNFFSNDLMTAYGRRQMNKRAEAERIAKEQRLQAERMREENMTDAEWQKELQRREQVKAERRTYGESLRSATHSAGRSRAAIVADLESGGNWMDSL | not soluble |
| MQSWYLLYCKRGQLQRAQEHLERQAVNCLAPMITLEKIVRGKRTAVSEPLFPNYLFVEFDPEVIHTTTISATRGVSHFVRFGASPAIVPSAVIHQLSVYKPKDIVDPAPPYPGDKVIITEGAFEGFQAIFTEPDGEARSMLLLNLINKEIKHSVKNTEFRKL | not soluble |
| MSLSFLYFNDNSKIANAPLKNRFEKTQKESLIIKNNNEDKKAKSKPKFYLIIDDVGYDEFMLEQFIKLNLKITYAIIPFLPKSMSLYKKLKNANKTVIIHFPMQSKHRNSIEKFHINIKDKKEEIHKKIEKAFKKYPDAKIMNNHMGSLITSNKDLMKIILEKLKEIDRYFFDSVTIAGSVPEIIGKEIGVKVEKRDVFLDSKDTEESVTKELEKAKNIARKNGMVKVIGHIWSKNTLKVLKKEGPDLNQEFEFDNLLNLYEETIREGHHHHHH | not soluble |
| MGSDKIHHHHHHMNRVVVGLQWGDEGKGKVVTYLSRYHDIVARFSGGANAGHTVNYGDFKVIHHLLPSADFTKNRGIAIGSGVLLDPQVLTEELRELKEKFPDYSGEIFISESAHVVLPVHKEMDRIIDEVLKIGTTKRGIGPACADRVMRVNVRVAELGNEEKLRYFLEKNLSLKKIYGVDFDAEKMMGDLSTFYETIKDFVVSPVQLKRILEEKSVLFEGTQGVLLDLDVGTYPYVTSMNCSSSGVSAGMGFPVEVDEVLGVFKAYTTRVGEGPFPTELTGEEGEKLRKAGHEYGSTTGRPRRCGWLDLPLLRYAIEISGVDSLVMTKADVLNGFEKIKVCVRYSDGRDLVSLRDLEKKEPVYEVFDGWKSLEDKNFERFVDFIERETGRPVRYISTGEKLEDIVEV | not soluble |
| MSLTIAHLTSSAFAVNKERNKFLMIHHNIYNSWAWTGGHSDNEKDQLKVAIKELKEETGVKNPTPLLDKAFALDVLTVNGHIKRGKYVSSHLHLNLTYLIECSEDETLMLKEDENSGVMWIPFNEISKYCSEPHMIPIYEKLINKLKTQSKEGHHHHHH | not soluble |
| GSAAATGPSFWLGNETLKVPLALFALNRQRLCERLRKNPAVQAGSIVVLQGGEETQRYCTDTGVLFRQESFFHWAFGVTEPGCYGVIDVDTGKSTLFVPRLPASHATWMGKIHSKEHFKEKYAVDDVQYVDEIASVLTSQKPSVLLTLRGVNTDSGSVCREASFDGISKFEVNNTILHPEIVECRVFKTDMELEVLRYTNKISSEAHREVMKAVKVGMKEYELESLFEHYCYSRGGMRHSSYTCICGSGENSAVLHYGHAGAPNDRTIQNGDMCLFDMGGEYYCFASDITCSFPANGKFTADQKAVYEAVLRSSRAVMGAMKPGVWWPDMHRLADRIHLEELAHMGILSGSVDAMVQAHLGAVFMPHGLGHFLGIDVHDVGGYPEGVERIDEPGLRSLRTARHLQPGMVLTVEPGIYFIDHLLDEALADPARASFFNREVLQRFRGFGGVRIEEDVVVTDSGIELLTCVPRTVEEIEACMAGCDKAFTPFSGPK | soluble |
